Data as given in PMC314469, “Protein Interaction Networks by Proteome Peptide Scanning” (PLoS Biology, 2004).

Target: Sho1 SH3 (SHO1_YEAST), P40073
Assay: SPOT array

Chain of Sho1 SH3 (SHO1_YEAST), P40073 (P40073 295-366): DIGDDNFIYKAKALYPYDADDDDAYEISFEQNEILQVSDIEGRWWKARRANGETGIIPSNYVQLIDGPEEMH

Binder	normalised SPOT signal, Boehringer light units (BLU); mean over the file's lines of this peptide
INQPSTPKKLKRKS [316-329 PLasmid Maintenance]	141
IEVPQSPTKNRVKV [61-74 (putative) involved in DNA replication]	141
HPDPADPAKELELN [377-390 lysyl-tRNA synthetase]	202
KDHPYDPEKDSVLK [97-110 vacuolar ATPase V1 domain subunit F (14 kDa)]	25.5
IQHPFLPRKIPIIT [408-421 mitochondrial and cytoplasmic valyl-tRNA synthetase]	164
KLRPDLPVKNFVVK [641-654 subunit of assimilatory sulfite reductase]	2110
LLPPTDPFRRKHEQ [63-76 ribosomal protein (weak similarity)]	155
IFGPFGPMKEVKIL [144-157 nuclear shuttling protein with an RNA recognition motif]	250
IFPPLNPARTSLNS [172-185 homologous to Ssf2p;possibly involved in mating]	87.7
IIFPYDPLKLGTHA [509-522 Weak similarity to Pta1p (pre-tRNA processing protein)]	113
KKYPRKPKKNLNLG [336-349 Hypothetical ORF]	224
LDDPFTPPRWLHHI	93
LIDPSTPDKAAKKD	103
IHSPRIPSKDEFIA	94.7
IMPPPKPFRHGLDS [517-530 Hypothetical ORF]	8750
IAAPKKPRKPRQTK [241-254 RNA polymerase II mediator subunit]	327
ILLPPLPERAYIMD [459-472 Hypothetical ORF]	242
ISTPPPPPKMAIPA [390-403 " type II PI(4)P5-kinase (PIP4,5 kinase) similar to human PIP5K-II"]	56.4
KKLPTGPSKKRQRK [1280-1293 transcriptional regulator]	203
LDYPKAPIKLTMKS [160-173 Hypothetical ORF]	175

Binder	normalised SPOT signal, Boehringer light units (BLU); mean over the file's lines of this peptide
LIMPIYPYRLVSTI [525-538 potential membrane glycoprotein with strong similarity to Vth2 and Pep1/Vps10]	338
KSFPPPPLKPGQKT [84-97 Hypothetical ORF]	85.4
LIPPGFPTKNYPPG [185-198 Hypothetical ORF]	80.2
IIFPTSPTKLTFSN [112-125 Cell cycle-dependent filament between nuclei]	125
KKDPNAPKRRLSAY [21-34 11-kDa nonhistone chromosomal protein]	152
IAYPGDPLRFHSHL [207-220 34kDa subunit of the tetrameric tRNA splicing endonuclease]	174
HSTPVTPRRLFTSQ [171-184 protein required for Clb2 and Ase1 degradation]	240
IFGPSFPFRSHIDV [170-183 Possible RNA binding protein. Homolog of Whi3.]	182
IFDPQDPYRRAQQF [496-509 Hypothetical ORF]	48.8
KFHPPEPYKGKGIY [187-200 Mitochondrial ribosomal protein MRPL6 (YmL6)]	237
IIIPPIPSKHSLLK [171-184 Hypothetical ORF]	352
HNSPVAPNRYAANL [84-97 chitin synthase 2]	103
HSSPIAPSKAKRQR [64-77 Transcription factor (fork head domain)]	201
KSSPWSPYKVEKVL [161-174 Mitotic spindle protein involved in chromosome segregation.]	137
LAPPLSPTKPSPLH [253-266 Hypothetical ORF]	106
IVNPFIPRRPYSNV [859-872 Hypothetical ORF]	530
KPDPESPSKLRHYE [851-864 involved in cell wall biogenesis]	216
IAHPVRPHRAITMT [631-644 dual specificity protein phosphatase]	112
KRTPKIPEKDVKSD [223-236 Hypothetical ORF]	3960
KIMPPTPAKKVEFI [312-325 putative GTP-exchange protein]	1220

Binder	normalised SPOT signal, Boehringer light units (BLU); mean over the file's lines of this peptide
LSIPDLPLRIHNQT [13-26 Hypothetical ORF]	102
KNLPTIPIRLSGID [143-156 Hypothetical ORF]	31800
LHGPFKPVKSSNGE [25-38 Hypothetical ORF]	61.6
IINPDTPHRRIFNQ [264-277 AP endonuclease]	174
HGVPVVPSREVTIN [440-453 protoporphyrinogen oxidase]	139
ITLPRRPAKKIQLG [41-54 Mitochondrial ribosomal protein MRPL36 (YmL36)]	281
IPTPSKPLKKRKKR [390-403 serine/threonine-rich membrane protein]	86.1
KYDPDNPNKDKLGT	159
IAYPFYPFKKLGRQ [32-45 Hypothetical ORF]	59.4
LMPPDSPPRMTENT [1790-1803 "RAP1-interacting factor, involved in establishment of repressed chromatin"]	121
LLKPETPSKRLVIR [249-262 kinesin-related protein involved in mitosis]	290
KLEPENPQKPSNTH [238-251 Hypothetical ORF]	94.4
KFIPNKPYRQFNTW [339-352 gamma-aminobutyrate (GABA) transaminase (4-aminobutyrate aminotransferase)]	60.6
KKDPFPPPKDLLVQ [421-434 110 kDa subunit of the centromere binding factor CBF3]	64.6
KISPSAPSKDSFTK [350-363 nuclear pore protein]	79.6
ILKPDIPLRNMLLR [138-151 Hypothetical ORF]	159
KNLPLNPSKKLEGK [313-326 Hypothetical ORF]	206
KWEPSTPQRNGPIL [158-171 Hypothetical ORF]	175
ILSPGYPNKSFNNK [653-666 heat shock transcription factor]	129
